Consider 27 molecules from doi:10.1101/208041.

Common to all, as to assay: filter binding
The target in data set [1] is T1, dMpAgo (catalytically inactive MpAgo) D446A (Marinitoga piezophila) (UniProt H2J4R4).
T1 sequence: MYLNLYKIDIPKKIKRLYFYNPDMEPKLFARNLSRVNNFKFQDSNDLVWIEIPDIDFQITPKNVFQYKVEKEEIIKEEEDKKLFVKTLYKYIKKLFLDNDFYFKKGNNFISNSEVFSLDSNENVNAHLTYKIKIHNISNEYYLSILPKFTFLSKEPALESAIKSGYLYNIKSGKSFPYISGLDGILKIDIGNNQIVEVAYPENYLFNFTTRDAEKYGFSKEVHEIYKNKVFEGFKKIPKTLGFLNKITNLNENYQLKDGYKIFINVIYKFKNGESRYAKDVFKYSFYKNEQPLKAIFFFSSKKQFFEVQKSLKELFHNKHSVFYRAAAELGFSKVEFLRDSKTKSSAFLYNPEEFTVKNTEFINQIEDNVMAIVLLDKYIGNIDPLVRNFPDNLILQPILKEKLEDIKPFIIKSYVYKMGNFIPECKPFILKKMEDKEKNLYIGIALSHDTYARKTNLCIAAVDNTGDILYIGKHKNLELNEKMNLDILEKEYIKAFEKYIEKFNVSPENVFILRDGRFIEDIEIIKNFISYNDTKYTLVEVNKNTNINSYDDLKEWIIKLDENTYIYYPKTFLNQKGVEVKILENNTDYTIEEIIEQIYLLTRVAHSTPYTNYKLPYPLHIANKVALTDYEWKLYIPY
The note with it: BrdU at guide 1; for binding signal (fold Kd vs complementary): internal desthiobiotin-TEG before last AA.

Data set [2] has as its target T2, MpAgo WT (Marinitoga piezophila, UniProt H2J4R4 1-639).
T2 sequence: T1 sequence with A446D
To be noted: biotinylated.

For data set [3], the target named is T2, MpAgo WT.
In data set [4] the target is T2, MpAgo WT. The source holds these as a separate data set.
Data set [5] deals with T3, dMpAgo (catalytically inactive MpAgo) (Marinitoga piezophila, UniProt H2J4R4 1-639, D446A).
T3 sequence: T1 sequence

Data set [6] has as its target T3, dMpAgo (catalytically inactive MpAgo). This is another data set of the same source.
Data set [7] shares this target. This is another data set of the same source.
Data set [8] shares this target. The source holds these as a separate data set.
For data set [9] the target is unchanged. This is another data set of the same source.
For data set [10] the target is unchanged. The source holds these as a separate data set.
For data set [11] the target is unchanged. The source holds these as a separate data set.
Data set [12] shares this target. The source holds these as a separate data set.
Data set [13] shares this target. This is another data set of the same source.

Numbering of substitutions follows the chain as printed. Like-named read-outs stand apart in the source and are kept apart here.

Regarding “UAUUGUGACAAGAAUGCUGUUAAAAAAAAAAA / GGCAGCAUUCAACAUUGUUGUCACAAUAUACAGCCAAG [32-nt guide / mm12]”, in [1], the binding signal (fold Kd vs complementary) is > 5.

“UGCGGAUGCCAUAUGCAACUU / GGCAGCAUUCAACCAUAUGGCANCCGCAUACAGCCAAG [A6 guide / I target]” yielded a binding signal in data set [1] (N = inosine at target 23) of 19 % bound. In the case of “UAUUGUGACAAGAAUGCUGUUAAAAAAAAAAA / GGCAGCAUUCAACAUUCUAGUCACAAUAUACAGCCAAG [32-nt guide / mm10]”, the binding signal (fold Kd vs complementary) in [1] is > 5. In data set [2], 33-nt gRNA registered a Kd of 35 nM.

Molecule AAUACAACCUACUACCUCAUU (ssRNA, 5'-OH) [gRNA 5'-rA] came in with a Kd in [3] of 73 ± 10 nM.

Take GAUACAACCUACUACCUCAUU (ssRNA, 5'-OH) [gRNA 5'-rG]: the dissociation constant Kd in data set [3] amounted to 49 ± 5 nM; in data set [4], 52 ± 4 nM.

B1: BrdU guide / OFF target (mixed)
RNA 1: UAUACAACCUACUACCUCAUU
RNA 2: GUUAUGUGUGUGAUUAUAUUUGUUCCAGUUCCUGUGUAAUAGACAUGGAA
modifications: BrdU at guide 1
B1: the binding result in [5] is given as “no binding”.

B2: G6 guide / A target (mixed)
RNA 1: UGCGGGUGCCAUAUGCAACUU
RNA 2: GGCAGCAUUCAACCAUAUGGCAACCGCAUACAGCCAAG
modifications: BrdU at guide 1
In [6], B2 registered a Kd of 0.779 ± 0.071 nM.

B3: C6 guide / U target (mixed)
RNA 1: UGCGGCUGCCAUAUGCAACUU
RNA 2: B2 RNA 2 with A23U
modifications: BrdU at guide 1
In the case of B3, in [7], the binding result is reported as “binds”.

B4: A6 guide / U target (complementary) (mixed)
RNA 1: UGCGGAUGCCAUAUGCAACUU
RNA 2: B2 RNA 2 with A23U
modifications: BrdU at guide 1
For B4, the binding result in data set [6] is given as “binds”.

B5: A6 guide / A target (mixed)
RNA 1: UGCGGAUGCCAUAUGCAACUU
RNA 2: B2 RNA 2
modifications: BrdU at guide 1
In the case of B5, the binding signal in data set [8] is ~10 fold Kd vs I target.

B6: A7 guide / G target (mm7) (mixed)
RNA 1: UAGCGGAUGCCAUAUCCAACU
RNA 2: B2 RNA 2 with A23G
modifications: BrdU at guide 1
B6 gave a binding signal in data set [9] of 301 fold Kd vs complementary.

B7: U7 guide / A target (mixed)
RNA 1: UAGCGGUUGCCAUAUCCAACU
RNA 2: B2 RNA 2
modifications: BrdU at guide 1
Consider B7, for which the binding result in [10] is listed as “binds”.

B8: C7 guide / A target (mixed)
RNA 1: UAGCGGCUGCCAUAUCCAACU
RNA 2: B2 RNA 2
modifications: BrdU at guide 1
Regarding B8, the binding signal in data set [11] was ~33 fold Kd vs I target.

B9: A7 guide / U target (mixed)
RNA 1: UAGCGGAUGCCAUAUCCAACU
RNA 2: B2 RNA 2 with A23U
modifications: BrdU at guide 1
On to B9, for which, in data set [10], the binding result is listed as “binds”.

B10: A7 guide / mm3 (mixed)
RNA 1: UAGCGGAUGCCAUAUCCAACU
RNA 2: B2 RNA 2 with A23U, C27A
modifications: BrdU at guide 1
Consider B10, for which the binding signal in data set [9] came to 32 fold Kd vs complementary.

B11: U6 guide / G target (mixed)
RNA 1: UGCGGUUGCCAUAUGCAACUU
RNA 2: B2 RNA 2 with A23G
modifications: BrdU at guide 1
As for B11, the binding signal in [8] is 21 fold Kd vs G6 guide/U target.

B12: U6 guide / A target (mixed)
RNA 1: UGCGGUUGCCAUAUGCAACUU
RNA 2: B2 RNA 2
modifications: BrdU at guide 1
Regarding B12, the binding result in [10] was “binds”.

B13: A7 guide / mm9 (mixed)
RNA 1: UAGCGGAUGCCAUAUCCAACU
RNA 2: B2 RNA 2 with C21A, A23U
modifications: BrdU at guide 1
B13: in data set [9], the binding signal was 327 fold Kd vs complementary.

B14: C7 guide / G target (mixed)
RNA 1: UAGCGGCUGCCAUAUCCAACU
RNA 2: B2 RNA 2 with A23G
modifications: BrdU at guide 1
B14: the binding result in data set [10] is “binds”.

B15: U6 guide / U target (mixed)
RNA 1: UGCGGUUGCCAUAUGCAACUU
RNA 2: B2 RNA 2 with A23U
modifications: BrdU at guide 1
In the case of B15, the binding result in data set [7] was “binds”.

B16: G7 guide / C target (mixed)
RNA 1: UAGCGGGUGCCAUAUCCAACU
RNA 2: B2 RNA 2 with A23C
modifications: BrdU at guide 1
As to B16, in data set [10], the binding result is on record as “binds”.

B17: BrdU guide / ON target (mixed)
RNA 1: UAUACAACCUACUACCUCAUU
RNA 2: GGACUAUGAUCUAGAUAUUAAUGAGGUAGUAGGUUGUAUCUCAGGAGGUC
modifications: BrdU at guide 1
In the case of B17, the results for the Kd in [12], in data set [13] and in data set [5] were 0.5 ± 0.115 nM, 0.193 ± 0.02 nM and 0.175 ± 0.023 nM, respectively.

With CAUACAACCUACUACCUCAUU (ssRNA, 5'-OH) [gRNA 5'-rC], binding in [3] was put at a Kd of 104 ± 9 nM.

B18: BrdU guide / 18-nt target (mixed)
RNA 1: UAUACAACCUACUACCUCAUU
RNA 2: GGACUAUGUAGAUCUAUAAUUAGAGGUAGUAGGUUGUAUCUCAGGAGGUC
modifications: BrdU at guide 1
In turn, B18 gave a Kd in data set [12] of 0.107 ± 0.006 nM.

B19: BrdU guide / 15-nt target (mixed)
RNA 1: UAUACAACCUACUACCUCAUU
RNA 2: B18 RNA 2 with G23C, A24U, G25C
modifications: BrdU at guide 1
B19 had a Kd in data set [12] of 0.083 ± 0.008 nM. In turn, UAUACAACCUACUACCUCAUU (ssRNA, 5'-OH) [gRNA 5'-rU] registered a Kd in [3] of 81 ± 9 nM.

Broadly, the Kd is a measure of binding affinity in units of concentration. Low readings indicate tighter binding, high ones weaker binding.
